Measured values taken from patent publication US20190134606A1.

Molecular target: Fab fragment derived from the humanized anti-IgE monoclonal IgG omalizumab ("Xolair", Novartis), made by papain digestion
Experiment: column breakthrough, 1 mg/mL Fab, HiTrap Protein L column, ligand density 10 mg/mL-gel from the manual

## Protein L ligand of the commercially available Protein L carrier ("HiTrap Protein L" manufactured by GE Healthcare)
  55% DBC: 21.7 mg/mL-gel
